Test results reported in patent publication US20060270591A1, “Androgen receptor coregulators” (priority 2002, published 2006).
Read-outs that look alike come from different tables or passages of the source.

T1: PR (Homo sapiens, UniProt P06401)
T1 construct: expressed in transfected cells; host or cells: DU145, PC-3
T1 sequence (P06401 1-933): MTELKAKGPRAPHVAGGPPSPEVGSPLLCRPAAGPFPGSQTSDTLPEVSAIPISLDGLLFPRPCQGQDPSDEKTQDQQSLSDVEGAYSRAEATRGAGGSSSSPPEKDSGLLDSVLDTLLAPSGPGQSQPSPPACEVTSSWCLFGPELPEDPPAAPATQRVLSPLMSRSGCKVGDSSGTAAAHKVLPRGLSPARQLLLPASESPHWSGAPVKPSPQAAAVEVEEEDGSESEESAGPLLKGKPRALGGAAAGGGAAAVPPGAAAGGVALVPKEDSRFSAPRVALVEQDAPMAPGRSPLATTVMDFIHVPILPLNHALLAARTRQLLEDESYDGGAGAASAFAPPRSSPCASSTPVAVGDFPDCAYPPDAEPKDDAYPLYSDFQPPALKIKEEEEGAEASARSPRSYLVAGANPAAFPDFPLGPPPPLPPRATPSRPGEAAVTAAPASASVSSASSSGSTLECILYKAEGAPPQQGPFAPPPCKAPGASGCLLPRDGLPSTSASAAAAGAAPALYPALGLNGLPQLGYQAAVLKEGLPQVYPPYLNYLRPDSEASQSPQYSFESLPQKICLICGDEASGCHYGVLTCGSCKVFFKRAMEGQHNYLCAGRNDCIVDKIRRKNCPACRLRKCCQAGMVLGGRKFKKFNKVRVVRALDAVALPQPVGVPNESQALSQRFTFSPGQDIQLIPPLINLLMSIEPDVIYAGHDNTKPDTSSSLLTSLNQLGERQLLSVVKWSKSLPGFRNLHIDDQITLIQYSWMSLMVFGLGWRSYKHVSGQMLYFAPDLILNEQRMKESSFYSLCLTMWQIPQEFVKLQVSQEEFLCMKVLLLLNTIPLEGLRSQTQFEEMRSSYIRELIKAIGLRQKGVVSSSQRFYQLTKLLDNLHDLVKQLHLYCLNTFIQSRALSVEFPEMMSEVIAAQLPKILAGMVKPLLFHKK

T2: ARA54-ARA54 interactions (Homo sapiens, UniProt Q9UBS8)
T2 construct: fl-ARA54, full-length ARA54; expressed in transfected cells; host or cells: DU145
T2 sequence (Q9UBS8 1-474): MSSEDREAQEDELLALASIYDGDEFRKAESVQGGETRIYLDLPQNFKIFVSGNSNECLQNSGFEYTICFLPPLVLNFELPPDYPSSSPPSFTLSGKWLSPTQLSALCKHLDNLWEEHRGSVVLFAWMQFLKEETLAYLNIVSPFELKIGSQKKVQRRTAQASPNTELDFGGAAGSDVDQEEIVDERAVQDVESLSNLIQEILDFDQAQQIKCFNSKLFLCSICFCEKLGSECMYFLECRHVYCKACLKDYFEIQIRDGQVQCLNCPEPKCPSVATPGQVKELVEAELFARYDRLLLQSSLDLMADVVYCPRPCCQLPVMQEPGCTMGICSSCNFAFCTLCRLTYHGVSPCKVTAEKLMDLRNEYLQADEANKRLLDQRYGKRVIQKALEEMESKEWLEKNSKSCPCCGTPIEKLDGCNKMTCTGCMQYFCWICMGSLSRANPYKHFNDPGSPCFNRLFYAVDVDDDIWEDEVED


How the values were obtained:
PR [1] = molecular target: T1, PR; details: previous studies; cited from earlier work
AR = details: prostate cancer cells; androgens or HF; cited from earlier work
PR [2] = molecular target: T1, PR; assay: PR transcription activity, MMTV-CAT reporter (Example 1); format: cell-based; details: DU145 cells
Protocol: 366. Human prostate cancer DU145 or PC3 cells, or human lung carcinoma cells NCI H1299 were grown in Dulbecco's minimal essential medium (DMEM) containing penicillin (25 U/ml), streptomycin (25˜g/ml), and 5% fetal calf serum (FCS). One hour before transfection, the medium was changed to DMEM with 5% charcoal-stripped FCS. Phenol red-free and serum-free media were used on the experiments employing E2 or TGF-β, respectively. A β-galactosidase expression plasmid, pCMV-β-gal, was used as an internal control for transfection efficiency.
367. Cells were transfected using the calcium phosphate technique (Yeh, et al. Molec. Endocrinol. 8:77-88, 1994). The medium was changed 24 hr posttransfection and the cells treated with either steroid hormones or hydroxyflutamide, and cultured for an additional 24 hr. Cells were harvested and assayed for CAT activity after the cell lysates were normalized by using β-galactosidaseas an internal control. Chloramphenicol acetyltransferase (CA) activity was visualized by PhosphorImager (Molecular Dynamics) and quantitated by ImageQuant software (Molecular Dynamics).

ARA54-ARA54 interactions = molecular target: T2, ARA54-ARA54 interactions; assay: Mammalian two-hybrid assay of ARA54-ARA54 interaction in DU145 cells; format: cell-based
Protocol: 15. […] DU145 cells were transfected with 2.5 μg of GAL4-hybrid expression plasmid (pGAL0-AR (A) or pCMX-GAL4 DBD-fl-ARA54 (B)), 2.5 μg of VP16-hybrid expression plasmid (pCMX-VP16-fl-ARA54), and 2.5 μg of pG5-CAT, with or without 2.5 μg of pSG5-C′-ARA54 (C′) or pSG5-mt-ARA54 (mt). pCMX-VP16-C′-ARA54 and pCMX-VP16-mt-ARA54 were also cotransfected to test the interactions with AR (A) and fl-ARA54 (B). The total amount of DNA was adjusted to 11.0 μg with pSG5 and/or pVP16 for each transfection. The CAT activity was determined and each CAT activity is presented relative to that of lane 4 in each panel (black bars; set as 100%). Values represent the mean±SD of at least three determinations.
397. DU145 cells were transiently cotransfected with a GAL4-hybrid expression plasmid, a VP16-hybrid expression plasmid, the reporter plasmid pG5-CAT, and the pCMV-O-gal internal control plasmid. Transfections and CAT assays were performed as described above.

Row | Molecule | enhancement of the transcription activity of PR (PR [1]) | enhancement of transactivation of wild-type AR and LNCaP mutant AR (AR) | enhancement of the transcription activity of PR (PR [2]) | CAT activity of GAL4-fl-ARA54 / VP16-fl-ARA54 interaction (ARA54-ARA54 interactions)
1 | ARA54: 54 kDa protein that interacts with AR in an androgen-dependent manner; AR coactivator (protein) MSSEDREAQEDELLALASIYDGDEFRKAESVQGGETRIYLDLPQNFKIFVSGNSNECLQNSGFEYTICFLPPLVLNFELPPDYPSSSPPSFTLSGKWLSPTQLSALCKHLDNLWEEHRGSVVLFAWMQFLKEETLAYLNIVSPFELKIGSQKKVQRRTAQASPNTELDFGGAAGSDVDQEEIVDERAVQDVESLSNLIQEILDFDQAQQIKCFNSKLFLCSICFCEKLGSECMYFLECRHVYCKACLKDYFEIQIRDGQVQCLNCPEPKCPSVATPGQVKELVEAELFARYDRLLLQSSLDLMADVVYCPRPCCQLPVMQEPGCTMGICSSCNFAFCTLCRLTYHGVSPCKVTAEKLMDLRNEYLQADEANKRLLDQRYGKRVIQKALEEMESKEWLEKNSKSCPCCGTPIEKLDGCNKMTCTGCMQYFCWICMGSLSRANPYKHFNDPGSPCFNRLFYAVDVDDDIWEDEVED | up to 4 fold | 2-6 fold | 3-5 fold | –
2 | C′-ARA54: C-terminal region (amino acids 361-474) of ARA54 (protein, Homo sapien, C-terminal region (amino acids 361-474) of ARA54) RNEYLQADEANKRLLDQRYGKRVIQKALEEMESKEWLEKNSKSCPCCGTPIEKLDGCNKMTCTGCMQYFCWICMGSLSRANPYKHFNDPGSPCFNRLFYAVDVDDDIWEDEVED | – | – | – | returned to the basal levels
